From US20210236667A1
Where two headings read alike, the source gives them in different places.

Experiments:
[1] = biological target: Human epidermal growth factor receptor (EGFR) (human) (UniProt P00533); test: flow cytometry on MDA-MB-468 cells
[2] = biological target: Human epidermal growth factor receptor (EGFR) (human) (UniProt P00533); test: flow cytometry saturation binding on MDA-MB-468 cells
[3] = biological target: Human epidermal growth factor receptor (EGFR) (human) (UniProt P00533); test: competitive radioligand binding on MDA-MB-468 cells pre-blocked with 100-fold excess of unlabeled 8709-scFv-Fc; ^225Ac-8709-scFv-Fc at 50 nM
[4] = biological target: Human epidermal growth factor receptor (EGFR) (human) (UniProt P00533); test: immunoreactive fraction (Lindmo) assay on MDA-MB-468 cells
[5] = biological target: Human epidermal growth factor receptor (EGFR) (human) (UniProt P00533); test: saturation radioligand binding assay on MDA-MB-468 cells
[6] = biological target: Human epidermal growth factor receptor (EGFR) (human) (UniProt P00533); test: flow cytometry on MDA-MB-468 cells; remark: listed apart in the source

B1: 8709-scFv-Fc-PEG6-DM1 (scFv, part only; not given: scFv linker, hinge and Fc, V domains shown, not shown: another chain or arm of the molecule; a dimerising Fc or GST; small tags and cut ends)
VH: EVQLVESGGGLVQPGGSLRLSCAASGFNLYSSSMHWVRQAPGKGLEWVASIYPYSGYTYYADSVKGRFTISADTSKNTAYLQMNSLRAEDTAVYYCARYPFGVSAYYAMDYWGQGTLVTVSS
VL: DIQMTQSPSSLSASVGDRVTITCRASQSVSSAVAWYQQKPGKAPKLLIYSASSLYSGVPSRFSGSRSGTDFTLTISSLQPEDFATYYCQQSYWLITFGQGTKVEIK
modifications: PEG6-DM1 coupled via DM1-PEG6-NHS, drug to antibody ratio 3.5; attachment sites not stated.
- % binding [1]: > 90%
- Kd [2]: 4.2 nM

B2: 8709-scFv-Fc (scFv, part only; not given: scFv linker, hinge and Fc, V domains shown, not shown: another chain or arm of the molecule; a dimerising Fc or GST; small tags and cut ends)
VH: B1 VH
VL: B1 VL
- fold reduction in the binding of ^225Ac-8709-scFv-Fc to EGFR [3]: 23.2 fold
- % binding [1]: > 90%
- Kd [2]: 1.1 nM

B3: ^225Ac-8709-scFv-Fc (scFv, part only; not given: scFv linker, hinge and Fc, V domains shown, not shown: another chain or arm of the molecule; a dimerising Fc or GST; small tags and cut ends)
VH: B1 VH
VL: B1 VL
modifications: Macropa chelator (coupled via macropa-NCS) carrying ^225Ac; attachment sites not stated.
- immunoreactive fraction [4]: 0.86
- Kd [5]: 14.5 nM

B4: Macropa-8709-scFv-Fc (scFv, part only; not given: scFv linker, hinge and Fc, V domains shown, not shown: another chain or arm of the molecule; a dimerising Fc or GST; small tags and cut ends)
VH: B1 VH
VL: B1 VL
modifications: Macropa chelator coupled via macropa-NCS, not radiolabeled; attachment sites not stated.
- % binding [1]: > 90%
- Kd [2]: 11.3 nM
- fold higher KD as compared to 8709-scFv-Fc [2]: 10.4 fold
- % binding [6]: > 85%
